Reference: patent publication US20250289891A1 (AUTOLUS, published 2025)

T1: Recombinant purified FcRH5 Ig-8 domain (UniProt Q96RD9 743-850, limits assumed)
T1 construct: domain: Ig8
T1 sequence (looked up): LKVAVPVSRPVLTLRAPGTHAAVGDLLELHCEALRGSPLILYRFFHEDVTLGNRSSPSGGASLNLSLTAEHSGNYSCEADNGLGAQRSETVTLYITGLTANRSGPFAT

T2: Plate bound FcRH5 antigen (UniProt Q96RD9)
T2 sequence (looked up): T1 sequence (looked up)

B1: Anti-FcRH5 VHH-Fc AU60390 (AbVec.aFcRH5.dAb-MIgG2a-Fc.Clone.C06) (Fc fusion)
chain: QVQLQQSGGGLVQAGDSLRLSCAASGRTFSNSTMGWFRQAPGKERKFVAVISWSGGTYAYAESVKGRFTISRDNAKNTVYLQMNSLKPEDTAVYYCAAARKGWSTRGDDYDYWGQGTQVTVS
notes: not shown: murine IgG2a Fc domain
B2: Anti-FcRH5 VHH-CAR 66843 (VHH of AU60382), on Jurkat T cells (protein, not shown: large carriers)
chain: QVQLQESGGGLVQAGGSLIVSCAASGRTFSINAMAWFRQAPGKEREFVAAIGGSGRVSSTSYADFVKGRFTISRDNAKNTVYLRMNNLEPEDTAVYYCAARRDYLPFPPESYDYWGQGTQVTVA
B3: Anti-FcRH5 VHH-Fc AU60387 (AbVec.aFcRH5.dAb-MIgG2a-Fc.Clone.C01) (Fc fusion)
chain: QVQLQESGGGLVQAGGSLRLSCAASGRTFSTYGMGWFRQAPGKEREFVAAISRSGGATAYAASVKGRFTISRDDVKNTLYLQMNSLKPEDTAVYHCAGTRRAFSTGLRDYDYWGQGIQVTVS
notes: VHH fused to murine IgG2a Fc; not shown: murine IgG2a Fc domain
B4: Anti-FcRH5 VHH-CAR 66833 (VHH of AU60464), on Jurkat T cells (protein, not shown: large carriers)
chain: QVQLQQSGGGLVQPGGSLRLSCAAPGNIFRLNGTGWYRQAPGKQRELVAHITSGGNTDYADSVKGRFTISRDNAKNTVYLQMNSLKPEDTAVYYCNAIPFRLSWGQGTQVTVS
B5: Anti-FcRH5 VHH-CAR 66842 (VHH of AU60370), on Jurkat T cells (protein, not shown: large carriers)
chain: QVQLQESGGGSVQPGGSLSLSCAASGFTFSNYAMSWVRQAPGKGPEWVAVINSDGGTASSAGSVRGRFTISRDNAKNTLYLQMNRLKPEDTAVYYCAANRGFCAGVRCLEYQYWGQGTQVTVS
B6: Anti-FcRH5 VHH-CAR 66840 (VHH of AU60471), on Jurkat T cells (protein, not shown: large carriers)
chain: QVQLQESGGGLVQAGGSLRLSCAASGSIFSINAMGWYRQAPGKQRELVAFITSGGSTNYADSVKGRFTISRDNAKNTVYLQMNSLKPEDTAVYYCNALGGFVPSYGWGQGTQVTVS

Columns and labels:
[1] = target: T1, Recombinant purified FcRH5 Ig-8 domain; assay: SPR, Biacore 8k, VHH-mIgG2a Fc captured, FcRH5 Ig8 as analyte, 1:1 Langmuir fit, 25 C; footnote: kd outside instrument limits
Experimental: (§1) Recombinant anti-FcRH5 antibodies in mouse IgG2a format were captured on flow cell 2 on a Series S CM5 chip (GE Healthcare), functionalised with anti-mouse capture kit according to manufacturer's recommendations (GE Healthcare). Antibodies were captured to a density of 160 RU using a Biacore 8k instrument. HBS-P+ buffer was used as running buffer in all experimental conditions. Recombinant purified FcRH5 Ig-8 domain at known concentrations (500 nM with 2-fold serial dilutions) used as the ‘analyte’ and injected over the respective flow cells with 150s contact time and 500s dissociation at 30 μl/minute of flow rate with a constant temperature of 25° C. In each experiment, flow cell 1 was unmodified and used for reference subtraction. A ‘0 concentration’ sensogram of buffer alone was used as a double reference subtraction to factor for drift. Data were fit to a 1:1 Langmuir binding model. Since a capture system was used, a local maximal analytical response (Rmax) parameter was used for the data fitting in each case.

[2] = target: T1, Recombinant purified FcRH5 Ig-8 domain; assay: SPR, Biacore 8k, VHH-mIgG2a Fc captured by anti-mouse kit on CM5, FcRH5 Ig8 as analyte (500 nM, 2-fold dilutions), 1:1 Langmuir fit, 25 C
Experimental: as §1

[3] = target: T2, Plate bound FcRH5 antigen; assay: cell-based or functional assay

Binder | Kd [1] [nM] | koff [1] [s⁻¹] | kon [2] [M⁻¹ s⁻¹] | EC50 (µg/ml) of percentage Nur77 activation by plate bound FcRH5 antigen (µg/ml FcRH5 coating) [3] | Nur77-mClover positive cells after 24 h 10 µg/ml (% upregulation) [3] [%]
B1 | < 0.2 | < 1e-05 | 50000 |  | 
B2 |  |  |  | 1.97 | 29.7
B3 | < 0.206 | < 1e-05 | 48600 |  | 
B4 |  |  |  | 1.31 | 26.6
B5 |  |  |  | 1.46 | 36.8
B6 |  |  |  | 1.62 | 40.7
